As a reminder, the Kd is the equilibrium constant for the complex coming apart. A word on the stoichiometry N: it is a count of units in the complex or per binding partner.

In the experiment the target is SNID2 peptide of the CD3 zeta chain. The experiment in a line: ITC. For orientation: Isothermal titration calorimetry measures the heat released or taken up as one component is titrated into another.

Turning to HIV-2 consensus Nef, the Kd came out at 12 µM, the dH is -12.3 kcal/mol and the stoichiometry N came out at 1.08.
Turning to “SIVmac239 Nef core domain harboring the C-terminal region (domain or fragment)”, the dH was -14.2 kcal/mol and the stoichiometry N worked out at 1.05.

Values taken from publication PMC6956826.
